Assay results published in publication PMC4193741 (PLoS ONE, 2014).

What was measured:
[1] = molecular target: T1, GST-fused PreS2 antigen (PreS2 epitope of HBV) (Hepatitis B virus, PreS2 epitope …); experiment: SPR; Biacore 3000, CM5 chip; […], PBS running buffer; […]; details: both partners purified
T1 construct: also called GST-PreS2; PreS2 of HBV; not shown: GST, N-terminal, kept
T1 chain: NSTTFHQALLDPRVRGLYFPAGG

[2] = molecular target: T2, GST-fused N1 antigen (N1 epitope of H1N1 influenza virus) (Influenza A virus H1N1, neuraminidase …); experiment: as above; details: both partners purified
T2 construct: not shown: GST, N-terminal, kept
T2 chain: CRDNWHGSNRPW

Binder | Kd [1] [nM] | Kd [2] [nM]
SP1 scFv (scFv, V domains shown, also called clone SP1; anti-PreS2 SP1 scFv) VH: EVQLLESGGGLVQPGGSLRLSCAASGFTFSDYAMYWVRQAPGKGLEWVSGIDINGSNTKYADSVKGRFTISRDNSKNTLYLQMNSLRAEDTAVYYCARKYNHNNHQNTTNFDYWGQGTLVTVSS VL: EIVLTQSPGTLSLSPGERATLSCRASQNSSSYLSWYQQKPGQAPRLLIYYTSKLESGIPDRFSGSGSGTDFTLTISRLEPEDFAVYYCETVPSLLGVFGQGTKVEIK | 11.5 | –
S5 scFv (scFv, V domains shown) VH: EVQLLESGGGLVQPGGSLRLSCAASGFTFSNYCIGWVRQAPGKGLEWVSPINSNNSNTEYADSVKGRFTISRDNSKNTLYLQMNSLRAEDTAVYYCARCSLPQISHFDYWGQGTLVTVSS VL: EIVLTQSPGTLSLSPGERATLSCRASQNVSNYVSWYQQKPGQAPRLLIYDISTLQTGIPDRFSGSGSGTDFTLTISRLEPEDFAVYYCPKRVSTGGTFGQGTKVEIK | – | 11
